This note sets out measurements from US20100120894A1 (UNIVERSITY OF MASSACHUSETTS, published 2010).

A value given as a limit tells only on which side of the number the result lay.

Assay [1] addresses T1, ASC-YFP stably expressed in HEK293 cells (UniProt Q9ULZ3 1-195).
T1 construct: also called YFP-ASC; HEK293-ASC-YFP; not shown: YFP
Put plainly: confocal microscopy, HEK293-ASC-YFP cells transfected with PYD-CFP. On the procedure: Fluorescence intensities of the green (YFP-ASC) and red (PYD-CFP) channels were quantified along selected lines (white lines) and the percentage of ASC-YFP speckles per transfected cells assessed (panel b). c) 293T cells were transfected with expression plasmids encoding HAtagged ASC and CFP-tagged constructs as in panel a. The protein levels of the CFP-tagged PYD proteins in cell lysates were assessed by immunoblot analysis (INPUT, upper panels). Cell extracts were immunoprecipitated (IP) with anti-HA antibodies and immunoblotted (WB) with anti-HA antibody and anti-CFP antibody (lower panel). d) ASC was immunoprecipitated from THP-1 cell lysates primed with Sendai virus, whereas beads without anti-ASC antibody served as a negative control. The presence of ASC, PYHIN-2 and AIM2 was assessed by immunoblot analysis in the cell lysate and the ASC immunoprecipitation. The band above the AIM2 band in the ASC immunoprecipitation corresponds to the heavy chain of the anti-ASC antibody that is also detected by the secondary antibody. E) 293T cells were transfected with a multimerized NF-″B luciferase reporter construct together with fixed amounts of constructs as in (a) alone or together with increasing amounts of ASC. Cellular NF-″B activation was quantified in cell lysates 24 hours after transfection. Data of one representative experiment out of three (panels a, b, c and d) or two (panel e) are depicted.
To study the possibility that these PYHIN proteins associated with ASC in the cytosol, C-terminally tagged CFP PYD-domain fusions were generated. Of note, the putative nuclear localization sequences were predicted to localize to the […] of these molecules. Consistent with these predictions, all of the PYD-CFP fusion proteins were localized in the cytoplasm and formed large cytosolic aggregates in a portion of the cells (FIG. 6).

The next assay concerns the target HA-tagged ASC (human, UniProt Q9ULZ3 1-195, limits assumed). Put plainly: cell-based or functional assay.

T1 sequence (Q9ULZ3 whole entry): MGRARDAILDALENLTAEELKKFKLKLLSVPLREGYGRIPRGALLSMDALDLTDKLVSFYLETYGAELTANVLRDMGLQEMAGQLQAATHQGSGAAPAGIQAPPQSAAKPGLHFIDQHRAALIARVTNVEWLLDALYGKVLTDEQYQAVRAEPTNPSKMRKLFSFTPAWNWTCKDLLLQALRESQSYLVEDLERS
HA-tagged ASC, sequence (Q9ULZ3 whole entry): as above

B1: PYHIN2-PYD (1-84) C-terminally tagged with CFP (other, human, UniProt Q16666 1-84, looked up)
chain: MGKKYKNIVLLKGLEVINDYHFRMVKSLLSNDLKLNLKMREEYDKIQIADLMEEKFRGDAGLGKLIKIFEDIPTLEDLAETLKK
notes: range 1-84; also called IFI16 PYD; not shown: C-terminal CFP from vector pEFBOS-C-term-CFP
As for B1, in assay [1], the binding result is “no binding”.

B2: Full length human AIM2 (AS 1-356) C-terminally tagged with CFP (other, UniProt O14862 1-343, looked up, not shown: large carriers)
chain: MESKYKEILLLTGLDNITDEELDRFKFFLSDEFNIATGKLHTANRIQVATLMIQNAGAVSAVMKTIRIFQKLNYMLLAKRLQEEKEKVDKQYKSVTKPKPLSQAEMSPAASAAIRNDVAKQRAAPKVSPHVKPEQKQMVAQQESIREGFQKRCLPVMVLKAKKPFTFETQEGKQEMFHATVATEKEFFFVKVFNTLLKDKFIPKRIIIIARYYRHSGFLEVNSASRVLDAESDQKVNVPLNIIRKAGETPKINTLQTQPLGTIVNGLFVVQKVTEKKKNILFDLSDNTGKMEVLGVRNEDTMKCKEGDKVRLTFFTLSKNGEKLQLTSGVHSTIKVIKAKKKT
Consider B2, for which, in the assay with HA-tagged ASC, the “NF-kappaB luciferase reporter activation in 293T cells” value is not above 60 fold.

B3: PYHIN1-PYD (1-84) C-terminally tagged with CFP (other, human, UniProt Q6K0P9 1-84, looked up)
chain: MANNYKKIVLLKGLEVINDYHFRIVKSLLSNDLKLNPKMKEEYDKIQIADLMEEKFPGDAGLGKLIEFFKEIPTLGDLAETLKR
notes: range 1-84; also called IFIX PYD; not shown: C-terminal CFP from vector pEFBOS-C-term-CFP
As for B3, in assay [1], the binding result is “no binding”.

B4: PYHIN3-PYD (1-84) C-terminally tagged with CFP (other, human, UniProt P41218 1-84, looked up)
chain: MVNEYKKILLLKGFELMDDYHFTSIKSLLAYDLGLTTKMQEEYNRIKITDLMEKKFQGVACLDKLIELAKDMPSLKNLVNNLRK
notes: range 1-84; also called MNDA PYD; not shown: C-terminal CFP from vector pEFBOS-C-term-CFP
Take B4: the binding result in assay [1] is listed as “no binding”.
